Results reported in patent US20080187530A1.

Target: formyl peptide receptor-like 1 (FPRL1) (human) (UniProt P25090)
Assay: cell-based or functional assay

Sequence of UniProt P25090 (P25090 whole entry): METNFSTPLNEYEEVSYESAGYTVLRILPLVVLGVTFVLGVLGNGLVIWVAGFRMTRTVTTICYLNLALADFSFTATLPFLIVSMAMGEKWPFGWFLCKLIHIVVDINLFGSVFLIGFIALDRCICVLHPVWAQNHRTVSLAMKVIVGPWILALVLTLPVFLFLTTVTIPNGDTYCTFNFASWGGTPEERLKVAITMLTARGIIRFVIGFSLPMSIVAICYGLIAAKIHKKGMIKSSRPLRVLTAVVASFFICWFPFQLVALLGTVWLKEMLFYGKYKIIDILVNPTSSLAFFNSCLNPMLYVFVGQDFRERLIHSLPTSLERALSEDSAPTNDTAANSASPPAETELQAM

LL-37 peptide (from UniProt P49913 134-170)
decrease in proliferation of HaCaT cells treated with LL-37 after pretreatment with pertussis toxin: 50%
